The source of these data is patent US20130123171A1 (INDIANA UNIVERSITY RESEARCH AND TECHNOLOGY CORPORA, published 2013).

Test [1] has as its target insulin receptor, A subtype (UniProt P06213). The test can be described thus: cell-based or functional assay.
In test [2] the target is insulin receptor, B subtype (UniProt P06213). The test can be described thus: cell-based or functional assay.
For test [3], the target named is T1, human insulin receptor (human, UniProt P06213 28-1382).
T1 construct: whole, on cells
As to the kind of experiment: SPA competition vs 125I-insulin, human IR membranes (Example 3). The procedure:
(§1) Non-specifically bound (NSB) radioactivity was measured in the wells with a four-fold concentration excess of “cold” native ligand than the highest concentration in test samples. Total bound radioactivity was detected in the wells with no competitor. Percent specific binding was calculated as following: % Specific Binding=(Bound-NSB/Total bound-NSB)×100.

Test [4] concerns the target human insulin receptor (human) (UniProt P06213). As to the kind of experiment: cell-based or functional assay.
In test [5] the target is T1, human insulin receptor. The test can be described thus: cell-based or functional assay.
The target in test [6] is T2, human IGF-1 receptor (human, UniProt P08069 31-1367).
T2 construct: whole, on cells
The test can be described thus: cell-based or functional assay.

The target in test [7] is T2, human IGF-1 receptor. As to the kind of experiment: SPA competition vs 125I-IGF-1, human IGF-1R membranes (Example 3). How it is done: as §1
In test [8] the target is human insulin receptor (human) (UniProt P06213). The test can be described thus: SPA competition vs 125I-insulin, human IR membranes (Example 3).
Test [9] has as its target T1, human insulin receptor. As to the kind of experiment: in vitro insulin receptor binding assay after 0 hr in 20% plasma/PBS at 37 C, relative to native insulin.
Test [10] addresses T1, human insulin receptor. The test can be described thus: in vitro insulin receptor binding assay after 9 hr in 20% plasma/PBS at 37 C, relative to native insulin.
Test [11] has as its target T1, human insulin receptor. As to the kind of experiment: in vitro insulin receptor binding assay after 95 hr in 20% plasma/PBS at 37 C, relative to native insulin.

“And” between values parts separate entries of the source, which are not always exact repeats. Equal values may be shown once. Positions of bridges follow the written chain, without caps; N, C: chain ends. Chains are numbered I, II in the order given. No end group written: not given here.

Take “B^1Aoa2(H5, H10,Y16,L17)25a: A^1(pNH2-F19, N18, N21) (peptide)”: the % (of insulin), in vitro phosphorylation assay, IR-A in test [1] came to 81%. Besides, in [2], the % (of insulin), in vitro phosphorylation assay, IR-B was found to be 48%.
In test [1], “B^1PEG-Aoa2(H5, H10,Y16,L17)25a: A^1(pNH2-F19, N18, N21), N-terminal 20 kDa PEG, no dipeptide at A19” showed a % (of insulin), in vitro phosphorylation assay, IR-A of 18%. In test [2], this molecule showed a % (of insulin), in vitro phosphorylation assay, IR-B of 6.5%.
For the molecule “B^1PEGAoa2(H5, H10,Y16,L17)25a: A^1(dLys(rE-C14),Nleu-aF19, N18, N21) (peptide)”, in [1], the % (of insulin), in vitro phosphorylation assay, IR-A, prodrug after 78 h in PBS at 37 C is 8.3% and the % (of insulin), in vitro phosphorylation assay, IR-A, prodrug at 0 h is 1.1%. In test [2], the % (of insulin), in vitro phosphorylation assay, IR-B, prodrug after 78 h in PBS at 37 C worked out at 6.3% and the % (of insulin), in vitro phosphorylation assay, IR-B, prodrug at 0 h was determined as 1.2%.
One may read the IC50 as the midpoint of a concentration-inhibition curve. Read a low IC50 as higher potency. As to “IGF1 A:B(Y^B16L^B17)(p-NH2-F)^A19amide (peptide)”, in [3], the % of Insulin Activity amounted to 22% and the concentration for half-maximal inhibition (IC50) turned out to be 1.08 nM.
In test [3], “IGF1(Y^B16L^B17)(AlaPro)^A-1,0 (peptide)” gave a % of Insulin Activity of 37.1% and an IC50 of 1.93 nM.
Regarding “IGF-1 A (H8 A9 N21):B (H5D10Y16L17 A22) DPI A-COOH (peptide)”, the % Insulin, total phosphorylation, Insulin Receptor in [4] was 360% and 614%.
In the case of “IGF-1 A (H8 A9 N21):B (H5D10Y16L17) DPI A-COOH (peptide)”, the % Insulin, total phosphorylation, Insulin Receptor in test [5] is 840% and 1080%. The molecule further showed a % IGF, total phosphorylation, IGF-1 Receptor in [6] of 181%. Also, in [3], the % insulin (in test) was 1580% and 1670%; the IC50 was 0.05 nM and 0.09 nM. In [7], this molecule displayed a % IGF-1 (in test) of 12.9%, a % native IGF-1 activity (0.55 nM) of 13.6% and an IC50 of 4.03 nM.
For the molecule “IGF-1 A:B (H5D10Y16L17) (S═O)DPI (peptide)”, in [8], the % insulin (in test) was found to be 316% and the IC50 turned out to be 0.25 nM.
Take IGF-1 A:B (H5D10Y16L17) DPI (peptide): in test [8], the % insulin (in test) came to 479% and the IC50 was determined as 0.16 nM.
In test [5], “IGF-1 A:B(D10Y16L17) DPI A-COOH (peptide)” displayed a % Insulin, total phosphorylation, Insulin Receptor of 1580%. The molecule further yielded a % IGF, total phosphorylation, IGF-1 Receptor in test [6] of 112%. For the same molecule, in test [3], the % insulin (in test) is 301% and 380% and 174%; the % native insulin activity (0.6 nM) was 231% and 300% and 144%; the IC50 was 0.26 nM and 0.2 nM and 0.42 nM. In test [7], this molecule had a % IGF-1 (in test) of 7.7%, a % native IGF-1 activity (0.55 nM) of 8.1% and an IC50 of 6.79 nM.
Consider “IGF-1 A:B(E10 Y16L17)-E31E32B-COOH (peptide)”, for which, in [5], the % Insulin, total phosphorylation, Insulin Receptor is 18.1% and 31.7%. In test [7], this molecule yielded a % IGF-1 (in test) of 3%, a % native IGF-1 activity (0.55 nM) of 3.1% and an IC50 of 17.5 nM.
Take In A:IGF-1 B(YL) (peptide): in test [3], the % insulin (in test) was 0.9% and 0.7%; the % native insulin activity (0.6 nM) was 0.7% and 0.6%; the IC50 is 82.6 nM and 107 nM.
With “MIU-30a: B^1(Y16,L17,Y25)29a: A^1(dLys(Ac),Sar-aF19) (peptide)”, in [5], the % Activity of Insulin, in vitro phosphorylation assay, after 1 hr in 20% plasma came to 23%; the % Activity of Insulin, in vitro phosphorylation assay, after 3 hr in 20% plasma turned out to be 26.8%; the % Activity of Insulin, in vitro phosphorylation assay, after 6 hr in 20% plasma stood at 32.5%; the % Activity of Insulin, in vitro phosphorylation assay, after 9 hr in 20% plasma came to 41.1%. Further, the % Activity of Insulin, in vitro phosphorylation assay, after 10.5 hr in 20% plasma in [5] was determined as 43.2%. This molecule came in with a % Activity of Insulin in test [9] of 34.4%. In addition, in [10], the % Activity of Insulin stood at 100%. For the same molecule, in test [11], the % Activity of Insulin amounted to 115%.

B1: IGF-1 A:B(E10Y16L17) (peptide)
A chain: GIVDECCFRSCDLRRLEMYCA-NH2
B chain: GPETLCGAELVDALYLVCGDRGFYFNKPT-NH2
modifications: disulfide I:7-II:6 (inferred); not fully specified (bridges); cysteine pairing not given here
notes: A chain, then B chain
In the case of B1, the IC50 in test [3] was 0.66 nM and 0.51 nM; in [7], 7.85 nM and 12.2 nM.

B2: IGF-1 A:IGF-1 B(1-8)-In (9-17)-IGF-1 B (18-30) (peptide)
chain 1: GIVDECCFRSCDLRRLEMYCA-NH2
chain 2: GPETLCGSHLVEALYLVCGDRGFYFNKPT-NH2
modifications: disulfide I:7-II:6 (inferred); not fully specified (bridges); ends not checked; also: C-terminal amide (chain not given here)
notes: my derivation
Take B2: in [3], the “% insulin (in test)” value turned out to be 19.1%, the “% native insulin activity (0.6 nM)” value came out at 37.7% and the half-inhibitory concentration (IC50) turned out to be 1.59 nM. In addition, in test [7], the “% IGF-1 (in test)” value worked out at 0.3%, the “% native IGF-1 activity (0.55 nM)” value was 0.4% and the IC50 is 131 nM.

B3: IGF1 (Y^B16L^B17) (peptide)
A chain: GIVDECCFRSCDLRRLEMYCA
B chain: GPETLCGAELVDALYLVCGDRGFYFNKPT
modifications: disulfide I:7-II:6 (inferred); not fully specified (C-terminus, bridges); cysteine pairing not given here
notes: A chain, then B chain, two chain heteroduplex; also called IGF1(YL)^B16B17 analog; IGF1 A:B(Y^B16L^B17)
In [3], B3 came in with a half-maximal inhibitory concentration (IC50) of 0.51 nM.

B4: IGF-1 A:B (peptide)
chain 1: GIVDECCFRSCDLRRLEMYCA-NH2
chain 2: GPETLCGAELVDALQFVCGDRGFYFNKPT-NH2
modifications: disulfide I:7-II:6 (inferred); not fully specified (bridges); ends not checked; also: C-terminal amide (chain not given here)
notes: Two chain heteroduplex of the native IGF-1 A and B chains
B4: in test [3], the “% insulin (in test)” value is 5.8%, the “% native insulin activity (0.6 nM)” value was 5.8% and the IC50 turned out to be 10.4 nM.

B5: IGF-1 A:B (E10Y16L17) DPI (peptide)
A chain: GIVDECCFRSCDLRRLEMYCA-NH2
B chain: GPETLCGAELVDALYLVCGDRGFY-NH2
modifications: disulfide I:7-II:6 (inferred); not fully specified (bridges); cysteine pairing not given here
notes: A chain, then B chain; DPI as in m25
On to B5, for which, in test [7], the “% IGF-1 (in test)” value turned out to be 3.3%, the “% native IGF-1 activity (0.55 nM)” value was found to be 2.4% and the IC50 was determined as 22.9 nM.

B6: IGF-1 A:B (H5D10Y16L17) DPI (peptide)
chain 1: GIVDECCFRSCDLRRLEMYCA-NH2
chain 2: GPEHLCGADLVDALYLVCGDRGFY-NH2
modifications: disulfide I:7-II:6 (inferred); not fully specified (bridges); ends not checked; also: C-terminal amide (chain not given here)
On to B6, for which, in test [7], the “% IGF-1 (in test)” value is 11.2%, the “% native IGF-1 activity (0.55 nM)” value turned out to be 11.8% and the IC50 came to 4.66 nM.

B7: IGF-1 A (H8 A9 N21):B (H5D10Y16L17 A22) DPI A-COOH (peptide)
chain 1: GIVDECCHASCDLRRLEMYCN-OH
chain 2: GPEHLCGADLVDALYLVCGDAGFY-NH2
modifications: ends and bridges not checked
For the molecule B7, in test [7], the “% IGF-1 (in test)” value stood at 2.3%, the “% native IGF-1 activity (0.55 nM)” value was determined as 2.4% and the IC50 is 22.8 nM.

B8: IGF-1 A:In (1-17)-IGF-1 B (18-30) (peptide)
chain 1: GIVDECCFRSCDLRRLEMYCA-NH2
chain 2: FVNQHLCGSHLVEALYLVCGDRGFYFNKPT-NH2
modifications: disulfide I:7-II:7 (inferred); not fully specified (bridges); ends not checked; also: C-terminal amide (chain not given here)
notes: my derivation
In the case of B8, the IC50 in [3] was 2.77 nM and 2.67 nM and 2.48 nM. In test [7], the “% IGF-1 (in test)” value was 0.9%, the “% native IGF-1 activity (0.55 nM)” value was 0.9% and the IC50 amounted to 62.5 nM.

B9: IGF-1 A:In B(1-5)-IGF-1 B(YL) (6-30) (peptide)
A chain: GIVDECCFRSCDLRRLEMYCA-NH2
B chain: FVNQHLCGAELVDALYLVCGDRGFYFNKPT-NH2
modifications: disulfide I:6-I:11, I:20-II:19, I:7-II:7; also: disulfides as in insulin
notes: my derivation
In the case of B9, in [7], the “% IGF-1 (in test)” value turned out to be 3.6%, the “% native IGF-1 activity (0.55 nM)” value was determined as 2% and the IC50 stood at 27.5 nM.
